Numbering of substitutions follows the chain as printed. One block for each binder: values may come before it.
Legend:
human ROR1 [1] = molecular target: T1, human ROR1 (human, UniProt Q01973 30-406); assay: cross blocking, competitor D10
T1 construct: The immunogen was the extracellular portion (AA 1-406); also called hROR1; ROR1 protein

human ROR1 [2] = molecular target: T1, human ROR1; assay: binding site mapping
Method: (§1) As a second level screen, a series of deletion constructs were generated to determine the actual extracellular ROR1 domain to which the mAbs bind. […] As a final step, the actual amino acids targeted by these antibodies were determined. For this final screen, murinized human amino acids in the sub-domain fragments were generated to determine critical residues required for mAb binding (FIG. 15).

[3] = molecular target: human ROR1 with the isoleucine at position 111 replaced with the murine asparagine (human, UniProt Q01973 30-406, limits assumed); assay: murinized residue screen, western blot
Method: as §1

human ROR1 [4] = molecular target: T1, human ROR1; assay: standard techniques, method not stated (FIG. 16B)
murine ROR1 = molecular target: T2, murine ROR1 (murine, UniProt Q9Z139 30-406, limits assumed); assay: screen for binding to human and murine ROR1
T2 construct: also called mouse ROR1

[5] = molecular target: human ROR1 with the glutamic acid at position 138 replaced with the murine lysine (human, UniProt Q01973 30-406, limits assumed); assay: murinized residue screen, western blot
Method: as §1

human ROR1 [6] = molecular target: T1, human ROR1; assay: standard techniques, method not stated (FIG. 16A)

T1 sequence (Q01973 30-406 limits assumed): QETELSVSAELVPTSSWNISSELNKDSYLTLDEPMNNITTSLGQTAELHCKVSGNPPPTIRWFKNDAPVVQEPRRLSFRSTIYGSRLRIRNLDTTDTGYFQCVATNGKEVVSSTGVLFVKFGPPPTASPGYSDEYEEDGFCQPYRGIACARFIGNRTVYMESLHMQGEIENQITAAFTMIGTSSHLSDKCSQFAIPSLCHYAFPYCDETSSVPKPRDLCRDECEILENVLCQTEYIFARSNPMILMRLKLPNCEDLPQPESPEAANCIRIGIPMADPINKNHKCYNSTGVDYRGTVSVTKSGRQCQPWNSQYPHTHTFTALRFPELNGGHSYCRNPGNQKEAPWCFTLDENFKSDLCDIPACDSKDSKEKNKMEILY
T2 sequence (Q9Z139 30-406 limits assumed): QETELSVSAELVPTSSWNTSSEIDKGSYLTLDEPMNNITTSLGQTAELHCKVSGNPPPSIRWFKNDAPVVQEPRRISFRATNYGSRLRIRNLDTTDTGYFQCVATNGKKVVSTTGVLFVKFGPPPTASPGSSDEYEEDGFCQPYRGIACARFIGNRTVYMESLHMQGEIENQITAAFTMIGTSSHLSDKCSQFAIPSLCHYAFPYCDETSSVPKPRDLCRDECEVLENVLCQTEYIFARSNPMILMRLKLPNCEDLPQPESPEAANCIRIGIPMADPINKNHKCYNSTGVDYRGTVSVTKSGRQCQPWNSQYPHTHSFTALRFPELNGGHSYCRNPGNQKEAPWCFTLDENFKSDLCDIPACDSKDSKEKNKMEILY
Chain of human ROR1 with the glutamic acid at position 138 replaced with the murine lysine (Q01973 30-406 E138K limits assumed): as the sequence (Q01973 30-406 limits assumed) above, with E109K counted along it
Chain of human ROR1 with the isoleucine at position 111 replaced with the murine asparagine (Q01973 30-406 I111N limits assumed): as the sequence (Q01973 30-406 limits assumed) above, with I82N counted along it

B1: F2 mouse anti-ROR1 mAb (antibody, V domains shown)
VH: EVQLQQSGPELEKPGASVKISCKASGFAFTGYNMNWVKQTNGKSLEWIGSIDPYYGGSTYNQKFKDKATLTVDKSSSTAYMQLKSLTSDDSAVYYCARSPGGDYAMDYWGQGTSVTVSS
VL: DIKMTQSPSSMYASVGERVTITCKASQGINSYSGWFQQKPGKSPKTLIYRGNRLVDGVPSRFSGSGSGQDYSLTISSLEYEDMGIYYCLQYDEFPYTFGGGTKLEIK
binding result (human ROR1 [1]): binds

B2: F12 mouse anti-ROR1 mAb (antibody, V domains shown)
VH: B1 VH
VL: B1 VL
binding result (human ROR1 [1]): binds

B3: G6 mouse anti-ROR1 mAb (antibody, V domains shown)
VH: B1 VH
VL: B1 VL
binding result (human ROR1 [1]): binds

Results, then the binder that gave them:

binding result (human ROR1 [2]): binds
B4: H10 mouse anti-ROR1 mAb (antibody, V domains shown)
VH: EVKLVESGGGLVKPGGSLKLSCAASGFTFSSYAMSWVRQTPEKRLEWVASISTGASAYFPDSVKGRFTISRDNARNILYLQMSSLRSEDTAMYYCARITTSTWYFDVWGAGTTVTVSS
VL: B1 VL with V15L, G28D, S33L, G34S, G51A

binding result (human ROR1 [2]): binds
B5: G11 mouse anti-ROR1 mAb (antibody, V domains shown)
VH: B4 VH
VL: B1 VL with V15L, G28D, S33L, G34S, G51A

binding result [3]: no binding
Kd (human ROR1 [4]): 4 nM
binding result (murine ROR1): no binding
B6: 4A5 mouse anti-ROR1 mAb (antibody, V domains shown)
VH: EVKLVESGGGLVKPGGSLKLSCAASGFTFSSYAMSWVRQIPEKRLEWVASISRGGTTYYPDSVKGRFTISRDNVRNILYLQMSSLRSEDTAMYYCGRYDYDGYYAMDYWGQGTSVTVSS
VL: B1 VL with V15L, Q27P, G28D, S33L, G34S, G51A, S65G, S76N, I106M
notes: also called 4A5 mAb; anti-ROR1 antibody 4A5

binding result [5]: no binding
Kd (human ROR1 [6]): 40 nM
binding result (murine ROR1): no binding
B7: D10 mouse anti-ROR1 mAb (antibody, V domains shown)
VH: QVQLKESGPGLVAPSQTLSITCTVSGFSLTSYGVHWVRQPPGKGLEWLGVIWAGGFTNYNSALKSRLSISKDNSKSQVLLKMTSLQTDDTAMYYCARRGSSYSMDYWGQGTSVTVSS
VL: EIVLSQSPAITAASLGQKVTITCSASSNVSYIHWYQQRSGTSPRPWIYEISKLASGVPVRFSGSGSGTSYSLTISSMEAEDAAIYYCQQWNYPLITFGSGTKLEIQ
notes: also called D10 mAb; anti-ROR1 antibody D10

binding result (human ROR1 [2]): binds
B8: G3 mouse anti-ROR1 mAb (antibody, V domains shown)
VH: QVQLQQPGAELVKPGTSVKLSCKASGYNFTNYWINWVKLRPGQGLEWIGEIYPGSGSTNYNEKFKSKATLTADTSSSTAYMQLSSLASEDSALYYCARDGNYYAMDYWGQGTSVTVSS
VL: DIQMTQTTSSLSASLGDRVTITCRASQDINNYLNWYQQKPDGTVKLLIYYTSALHSGVPSRFSGSGSGTDYSLTISNLEQEDIATYFCQQGNTLPPYTFGGGTKLEIK
